Measured values published in patent US20230183352A1 (published 2023).
Numbering of substitutions follows the chain as printed.

B1: QP192193 (antibody, human IgG1, V domains shown)
VH: QVQLQQSGAELVRPGSSVKISCKASGYAFSSYWMNWVKQRPGQGLEWIGQIYPGNGDTTYNGKFKGQATLTADKSSSTVYMQLSSLTSEDSAVYFCARFVKGNAMDYWGQGTSVTVSS
VL: DIVMTQSPSSLTVTAGEKVTMSCKSSQSLLNSGNQKNYLTWYQQNPGQPPKMLIYWASTRESGVPDRFTGSGSGIDFSLTISSVQAEDLALYYCQNAYSYPFTFGSGTKLEIK
notes: Chimeric; also called 40F1; mouse-derived chimeric antibody QP192193
B2: QP14441441 (antibody, human IgG1, kappa, V domains shown)
VH: QVQLVQSGAEVKKPGASVKVSCKASGYAFSSYWMNWVRQAPGQGLEWIGQIYPGNGDTTYNGKFKGRVTMTADKSTSTVYMELSSLRSEDTAVYYCARFVKGNAMDYWGQGTLVTVSS
VL: DIVMTQSPDSLAVSLGERATISCKSSQSLLNSGNQKNYLTWYQQKPGQPPKLLIYWASTRESGVPDRFSGSGSGIDFTLTISSVQAEDVAVYYCQNAYSYPFTFGQGTKLEIKR
notes: Humanized from QP192193
B3: QP14451442 (antibody, human IgG1, kappa, V domains shown)
VH: B2 VH with Y95F
VL: B2 VL with L52M
notes: Humanized from QP192193
B4: QP14501448 (antibody, human IgG1, kappa, V domains shown)
VH: EVQLVESGGGLVQPGGSLRLSCAASGFTFSSFGMHWVRQAPGKGLEWVAYISSGSNSIYYVDTVKGRFTISRDNAKNSLYLQMNSLRDEDTAVYYCARNAYYGNSFDYWGQGTLVTVSS
VL: B2 VL with S69T, I75T, D76V, V84L, Y93F, A97N, S99Y, F102L, Q106G, L110V
notes: Humanized from QP199200
B5: QP14491448 (antibody, human IgG1, kappa, V domains shown)
VH: B4 VH with A49S
VL: B2 VL with S69T, I75T, D76V, V84L, Y93F, A97N, S99Y, F102L, Q106G, L110V
notes: Humanized from QP199200
B6: QP14501446 (antibody, human IgG1, kappa, V domains shown)
VH: B4 VH
VL: B2 VL with S22N, I75T, V84L, A97N, S99Y, F102L, Q106G, L110V
notes: Humanized from QP199200
B7: QP199200 (antibody, human IgG1, V domains shown)
VH: DVQLVESGGGLVQPGGSRKLSCAASGFTFSSFGMHWVRQAPEKGLEWVAYISSGSNSIYYVDTVKGRFTISRDNPKNTLFLQMTSLKSEDTAMYYCARNAYYGNSFDYWGQGTTLTVSS
VL: DIVMTQSPSSLTVTAGEKVTMSCKSSQSLLNSGNQKNYLTWYQQKPGQPPKLLIYWASTRESGVPDRFTGSGSGTVFTLTISSVQAEDLAVYFCQNNYYYPLTFGAGTKLELK
notes: Chimeric; also called 43C11; mouse-derived chimeric antibody QP199200

Target: T1, Claudin 18.2 (CLDN18.2), expressed on CHOS-CLDN 18.2 / HEK293-CLDN 18.2 / HCC827-CLDN 18.2 cells (human, UniProt P56856-2 1-261)
T1 construct: whole, on cells; The species is not repeated for the CHOS-CLDN 18.2 cells; also called claudin-18A2
Assay: FACS, CHOS-CLDN18.2 cells, 20 µg/ml
Experimental: (§1) The initial concentration of the antibody was 20 μg/ml, it was diluted at 1:4, and incubated at 4° C. for 60 min.

| FACS reading | Binder |
| --- | --- |
| 155000 | B1 |
| 175000 | B2 |
| 177000 | B3 |

Target: T1, Claudin 18.2 (CLDN18.2), expressed on …
Assay: FACS, CHOS-CLDN18.2 cells, 0.005 µg/ml
Experimental: as §1

| FACS reading | Binder |
| --- | --- |
| 2480 | B4 |
| 2410 | B5 |
| 2330 | B6 |
| 2760 | B7 |

Target: T1, Claudin 18.2 (CLDN18.2), expressed on …
Assay: FACS, CHOS-CLDN18.2 cells, 10 µg/ml
Experimental: (§2) The initial concentration of the antibody was 20 μg/mkit was diluted at 1:4, and incubated at 4° C. for 60 min.

| MFI | Binder |
| --- | --- |
| 644000 | B1 |
| 693000 | B2 |
| 540000 | B4 |
| 484000 | B5 |
| 505000 | B6 |
| 653000 | B3 |
| 514000 | B7 |

Target: T1, Claudin 18.2 (CLDN18.2), expressed on …
Assay: FACS, CHOS-CLDN18.2 cells, 1.250 µg/ml
Experimental: as §1

| FACS reading | Binder |
| --- | --- |
| 168000 | B1 |
| 125000 | B2 |
| 137000 | B3 |

Target: T1, Claudin 18.2 (CLDN18.2), expressed on …
Assay: FACS, CHOS-CLDN18.2 cells, 0.078 µg/ml
Experimental: as §1

| FACS reading | Binder |
| --- | --- |
| 27800 | B1 |
| 27300 | B2 |
| 29800 | B3 |

Target: T1, Claudin 18.2 (CLDN18.2), expressed on …
Assay: FACS, CHOS-CLDN18.2 cells, 1.250 µg/ml
Remark: another data set of the same source
Experimental: as §1

| FACS reading | Binder |
| --- | --- |
| 108000 | B4 |
| 132000 | B5 |
| 96200 | B6 |
| 132000 | B7 |

Target: T1, Claudin 18.2 (CLDN18.2), expressed on …
Assay: FACS, CHOS-CLDN18.2 cells, 5 µg/ml
Experimental: as §1

| FACS reading | Binder |
| --- | --- |
| 177000 | B1 |
| 151000 | B2 |
| 138000 | B3 |

Target: T1, Claudin 18.2 (CLDN18.2), expressed on …
Assay: FACS, CHOS-CLDN18.2 cells, 0.020 µg/ml
Experimental: as §1

| FACS reading | Binder |
| --- | --- |
| 7460 | B4 |
| 6320 | B5 |
| 6350 | B6 |
| 7520 | B7 |

Target: T1, Claudin 18.2 (CLDN18.2), expressed on …
Assay: FACS, CHOS-CLDN18.2 cells, 5 µg/ml
Remark: another data set of the same source
Experimental: as §1

| FACS reading | Binder |
| --- | --- |
| 149000 | B4 |
| 154000 | B5 |
| 143000 | B6 |
| 165000 | B7 |

Target: T1, Claudin 18.2 (CLDN18.2), expressed on …
Assay: FACS, CHOS-CLDN18.2 cells, 0 µg/ml (background)
Experimental: as §1

| FACS reading | Binder |
| --- | --- |
| 732 | B1 |
| 732 | B2 |
| 732 | B3 |

Target: T1, Claudin 18.2 (CLDN18.2), expressed on …
Assay: FACS, MFI on CHOS-CLDN18.2 over MFI on CHOS-CLDN18.1, 10 µg/ml
Experimental: as §2

| CLDN18.2/CLDN18.1 (MFI ratio) | Binder |
| --- | --- |
| 627 | B1 |
| 608 | B2 |
| 501 | B4 |
| 487 | B5 |
| 510 | B6 |
| 463 | B3 |
| 560 | B7 |

Target: T1, Claudin 18.2 (CLDN18.2), expressed on …
Assay: FACS, CHOS-CLDN18.2 cells
Experimental: as §1

| EC50 | max | Binder |
| --- | --- | --- |
| 0.498 µg/mL | 149000 | B4 |
| 0.666 µg/mL | 154000 | B5 |
| 0.962 µg/mL | 143000 | B6 |
| 1.19 µg/mL | 165000 | B7 |

Target: T1, Claudin 18.2 (CLDN18.2), expressed on …
Assay: FACS, CHOS-CLDN18.2 cells
Remark: another data set of the same source
Experimental: as §1

| EC50 | max | Binder |
| --- | --- | --- |
| 0.361 µg/mL | 177000 | B1 |
| 0.484 µg/mL | 175000 | B2 |
| 0.344 µg/mL | 177000 | B3 |

Target: T1, Claudin 18.2 (CLDN18.2), expressed on …
Assay: FACS, CHOS-CLDN18.2 cells, 0.078 µg/ml
Remark: another data set of the same source
Experimental: as §1

| FACS reading | Binder |
| --- | --- |
| 14200 | B4 |
| 19200 | B5 |
| 13900 | B6 |
| 19900 | B7 |

Target: T1, Claudin 18.2 (CLDN18.2), expressed on …
Assay: FACS, CHOS-CLDN18.2 cells, 0.020 µg/ml
Remark: another data set of the same source
Experimental: as §1

| FACS reading | Binder |
| --- | --- |
| 11400 | B1 |
| 10100 | B2 |
| 11100 | B3 |

Target: T1, Claudin 18.2 (CLDN18.2), expressed on …
Assay: FACS, CHOS-CLDN18.2 cells, 20 µg/ml
Remark: another data set of the same source
Experimental: as §1

| FACS reading | Binder |
| --- | --- |
| 117000 | B4 |
| 183000 | B5 |
| 160000 | B6 |
| 218000 | B7 |

Target: T1, Claudin 18.2 (CLDN18.2), expressed on …
Assay: FACS, CHOS-CLDN18.2 cells, 0.313 µg/ml
Experimental: as §1

| FACS reading | Binder |
| --- | --- |
| 74600 | B1 |
| 74700 | B2 |
| 82300 | B3 |

Target: T1, Claudin 18.2 (CLDN18.2), expressed on …
Assay: FACS, CHOS-CLDN18.2 cells, 0 µg/ml (background)
Remark: another data set of the same source
Experimental: as §1

| FACS reading | Binder |
| --- | --- |
| 732 | B4 |
| 732 | B5 |
| 732 | B6 |
| 732 | B7 |

Target: T1, Claudin 18.2 (CLDN18.2), expressed on …
Assay: FACS, CHOS-CLDN18.2 cells, 0.005 µg/ml
Remark: another data set of the same source
Experimental: as §1

| FACS reading | Binder |
| --- | --- |
| 3790 | B1 |
| 4230 | B2 |
| 4790 | B3 |

Target: T1, Claudin 18.2 (CLDN18.2), expressed on …
Assay: FACS, CHOS-CLDN18.2 cells, 0.313 µg/ml
Remark: another data set of the same source
Experimental: as §1

| FACS reading | Binder |
| --- | --- |
| 45600 | B4 |
| 45100 | B5 |
| 39500 | B6 |
| 50600 | B7 |
